# Data from patent publication US9168297B2, “Regulation of skin pigmentation by neuregulin-1 (NRG-1)” (The United States of America, as Represented by the …, priority 2010, dated 2015).
# B1: NRG-1: commercially available recombinant human neuregulin-1 (rhNRG-1-β1, R&D Systems), SEQ ID NO: 11 (protein)
# chain: TSHLVKCAEKEKTFCVNGGECFMVKDLSNPSRYLCKCPNEFTGDRCQNYVMASFYKHLGIEFMEAEELYQK
# What was measured:
# HEM-LP melanocytes = assay: Melanin content assay (melanin/protein); format: cell-based, human; conditions: NRG-1 50 ng/ml
# Protocol: FIGS. 6A and 6B are bar graphs illustrating the effect of NRG-1 on the pigmentation of cultured human melanocytes. FIG. 6A) Lightly-pigmented (HEM-LP) and FIG. 6B) Darkly-pigmented (HEM-DP) melanocytes were treated with or without NRG-1 (50 ng/ml) for 1, 3, 5 or 9 days and proteins were extracted from each sample. After centrifugation at 10,000 g for 15 minutes, precipitates were analyzed for melanin content, and the supernatants were analyzed for protein content. Results are the average of three studies±SD; statistically significant differences are indicated.
# Melanin contents were determined by dissolving cell pellets overnight at room temperature in 200 μl 1 N NaOH, and melanin concentrations were quantitated by absorbance at 405 nm in a SpectraMax 250 ELISA reader (Molecular Devices) using a standard curve generated from synthetic melanin (Sigma-Aldrich, St. Louis, Mo.). Melanin content is expressed as μg melanin per μg protein. Each study was repeated at least three times.
# The effects of NRG-1 on the pigmentation of human melanocytes were also examined. […] However, on day 9, when the cells had reached confluence, the pigmentation level of NRG-1-treated HEM-LP melanocytes was about 35% higher than the control (FIG. 6A).
# ERBB4 = ERBB4 protein level by western blotting in melanocytes; format: cell-based, human; conditions: HEM-LP and HEM-DP, NRG-1 50 ng/ml, 5 days
# Protocol: FIGS. 7A and 7B are digital images illustrating expression of ERBBs after NRG-1 treatment. FIG. 7A) HEM-LP and HEM-DP melanocytes were treated with or without NRG-1 (50 ng/ml) for 5 days, and levels of ERBB2, ERBB3 or ERBB4 were detected by western blotting. Results shown are representative of three studies. FIG. 7B) Expression of ERBB2 was examined in HEM-LP and in HEM-DP melanocytes after 1 or 9 days or treatment with NRG-1 compared to vehicle-treated controls; the results are representative of two independent studies.
# Fibroblast cultures in 100-mm dishes were solubilized in appropriate volumes of M-PER mammalian protein extraction reagent (Pierce Biotechnology, Rockford, Ill.) containing a Protease Inhibitor mixture (Roche, Mannheim, Germany) and phosphatase inhibitors. The protein concentration of each extract was measured using a BCA protein assay kit (Pierce, Rockford, Ill.). Cell extracts (20 μg) were separated on 8-16% gradient SDS polyacrylamide gels (Invitrogen, Carlsbad, Calif.), after which proteins were transferred to PVDF membranes (Invitrogen, Carlsbad, Calif.). […] Antigen-antibody complexes were detected using an ECL-plus Western blotting detection system (GE Healthcare). […]
molecule,measurement,setting,value
B1,Pigmentation level higher than the control,"HEM-LP melanocytes; day 9, confluent",about 35%
same,Level of pigmentation (melanin/protein),"HEM-LP melanocytes; days 1 through 5, subconfluent, vs control",not significantly different
same,Levels of ERBB4 expression,ERBB4,did not change
